Reference: the supplement of paper PMC10065799, “High-throughput profiling of sequence recognition by tyrosine kinases and SH2 domains using bacterial peptide display” (eLife, 2023)

Columns and labels:
c-Src SH2 = assay: SH2 binding enrichment of the phosphorylated peptide, bacterial display (enrichment ratio); higher = better substrate or ligand; peptides without Tyr show the background
SHP2-C SH2 = assay: as above
Grb2 SH2 = Grb2 SH2 (UniProt P62993); assay: as above
c-Src = assay: phosphorylation enrichment, bacterial display (enrichment ratio); higher = better substrate or ligand; peptides without Tyr show the background
AncSZ = assay: as above
Fyn = Fyn (UniProt P06241); assay: as above
FGFR3 = FGFR3 (UniProt P22607); assay: as above
Jak2 = Jak2 (UniProt O60674); assay: as above
c-Abl (mouse) = assay: as above
EPHB1 = EPHB1 (UniProt P54762); assay: as above
Fes = Fes (UniProt P07332); assay: as above
FGFR1 = FGFR1 (UniProt P11362); assay: as above
MERTK = MERTK (UniProt Q12866); assay: as above
Fer (mouse) = assay: as above
EPHB2 = EPHB2 (UniProt P29323); assay: as above
Hck = Hck (UniProt P08631); assay: as above
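Wherever SH2 binding enrichment of the phosphorylated peptide, bacterial display is given: peptide library displayed on the E. coli surface as eCPX fusions, selected cells deep-sequenced, score is each peptide's frequency after selection divided by its frequency in the input.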
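Wherever phosphorylation enrichment, bacterial display is given: 11-residue human phosphosite peptides and single-mutation variants displayed on the E. coli surface, counted by deep sequencing, each peptide's frequency after selection divided by its frequency in the unselected input library; frequency after pTyr selection over input frequency; kinase dosed for 20-30% of maximal phosphorylation in three min.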

Jak2, sequence (O60674 whole entry, looked up): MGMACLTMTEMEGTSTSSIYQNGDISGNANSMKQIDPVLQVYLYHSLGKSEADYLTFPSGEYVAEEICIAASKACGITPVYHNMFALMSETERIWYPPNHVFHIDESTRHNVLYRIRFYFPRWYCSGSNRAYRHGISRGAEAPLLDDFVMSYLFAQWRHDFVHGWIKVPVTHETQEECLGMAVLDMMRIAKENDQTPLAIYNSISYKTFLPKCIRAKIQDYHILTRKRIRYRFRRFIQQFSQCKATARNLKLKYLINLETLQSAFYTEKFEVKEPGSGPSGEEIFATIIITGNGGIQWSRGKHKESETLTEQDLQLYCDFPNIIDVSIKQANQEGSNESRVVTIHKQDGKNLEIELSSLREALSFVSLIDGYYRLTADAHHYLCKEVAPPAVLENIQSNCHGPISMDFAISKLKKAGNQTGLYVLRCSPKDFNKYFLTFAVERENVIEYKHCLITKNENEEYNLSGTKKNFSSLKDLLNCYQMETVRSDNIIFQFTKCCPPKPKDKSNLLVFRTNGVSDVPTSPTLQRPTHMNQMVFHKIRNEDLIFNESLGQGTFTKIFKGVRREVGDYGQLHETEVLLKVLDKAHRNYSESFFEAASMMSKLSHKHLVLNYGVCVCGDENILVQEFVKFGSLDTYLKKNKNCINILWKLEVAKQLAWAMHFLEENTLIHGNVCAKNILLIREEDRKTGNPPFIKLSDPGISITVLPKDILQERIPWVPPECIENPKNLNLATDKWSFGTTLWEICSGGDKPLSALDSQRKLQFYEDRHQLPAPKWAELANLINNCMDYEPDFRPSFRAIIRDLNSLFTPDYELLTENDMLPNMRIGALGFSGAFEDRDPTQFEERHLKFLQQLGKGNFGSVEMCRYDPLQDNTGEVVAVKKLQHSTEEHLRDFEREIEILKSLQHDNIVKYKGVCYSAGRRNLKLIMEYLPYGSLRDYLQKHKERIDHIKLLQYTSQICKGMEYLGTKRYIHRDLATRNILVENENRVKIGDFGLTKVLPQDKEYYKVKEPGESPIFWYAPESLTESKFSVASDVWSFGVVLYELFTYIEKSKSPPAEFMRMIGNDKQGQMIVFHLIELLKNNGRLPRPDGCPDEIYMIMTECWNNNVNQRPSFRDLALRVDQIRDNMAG
EPHB2, sequence (P29323 whole entry, looked up): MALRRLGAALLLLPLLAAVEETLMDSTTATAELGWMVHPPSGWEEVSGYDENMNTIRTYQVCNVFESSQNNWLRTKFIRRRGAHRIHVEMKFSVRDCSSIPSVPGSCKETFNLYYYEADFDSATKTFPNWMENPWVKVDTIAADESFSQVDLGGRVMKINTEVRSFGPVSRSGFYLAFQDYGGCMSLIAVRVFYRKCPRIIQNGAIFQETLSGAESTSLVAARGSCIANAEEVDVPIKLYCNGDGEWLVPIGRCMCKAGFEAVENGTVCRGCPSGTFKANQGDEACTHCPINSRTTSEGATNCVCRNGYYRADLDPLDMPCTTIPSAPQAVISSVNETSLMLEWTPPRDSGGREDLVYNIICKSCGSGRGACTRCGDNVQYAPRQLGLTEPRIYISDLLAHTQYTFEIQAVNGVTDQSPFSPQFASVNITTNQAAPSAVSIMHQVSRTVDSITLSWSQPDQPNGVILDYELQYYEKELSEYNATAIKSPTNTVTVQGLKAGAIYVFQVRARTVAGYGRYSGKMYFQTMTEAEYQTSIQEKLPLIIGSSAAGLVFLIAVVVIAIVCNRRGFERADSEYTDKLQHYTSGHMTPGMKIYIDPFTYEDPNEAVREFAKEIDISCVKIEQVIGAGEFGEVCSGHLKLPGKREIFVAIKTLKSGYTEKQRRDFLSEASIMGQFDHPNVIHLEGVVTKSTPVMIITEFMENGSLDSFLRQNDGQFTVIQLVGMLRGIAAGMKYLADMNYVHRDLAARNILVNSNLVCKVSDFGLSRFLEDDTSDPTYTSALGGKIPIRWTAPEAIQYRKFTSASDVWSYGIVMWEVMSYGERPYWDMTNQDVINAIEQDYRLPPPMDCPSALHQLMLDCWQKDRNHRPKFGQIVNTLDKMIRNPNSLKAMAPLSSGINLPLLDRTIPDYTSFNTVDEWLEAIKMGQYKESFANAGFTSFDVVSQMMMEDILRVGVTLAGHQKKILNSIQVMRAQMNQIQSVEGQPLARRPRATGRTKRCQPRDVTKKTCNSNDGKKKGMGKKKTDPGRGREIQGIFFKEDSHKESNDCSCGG
EPHB1, sequence (P54762 whole entry, looked up): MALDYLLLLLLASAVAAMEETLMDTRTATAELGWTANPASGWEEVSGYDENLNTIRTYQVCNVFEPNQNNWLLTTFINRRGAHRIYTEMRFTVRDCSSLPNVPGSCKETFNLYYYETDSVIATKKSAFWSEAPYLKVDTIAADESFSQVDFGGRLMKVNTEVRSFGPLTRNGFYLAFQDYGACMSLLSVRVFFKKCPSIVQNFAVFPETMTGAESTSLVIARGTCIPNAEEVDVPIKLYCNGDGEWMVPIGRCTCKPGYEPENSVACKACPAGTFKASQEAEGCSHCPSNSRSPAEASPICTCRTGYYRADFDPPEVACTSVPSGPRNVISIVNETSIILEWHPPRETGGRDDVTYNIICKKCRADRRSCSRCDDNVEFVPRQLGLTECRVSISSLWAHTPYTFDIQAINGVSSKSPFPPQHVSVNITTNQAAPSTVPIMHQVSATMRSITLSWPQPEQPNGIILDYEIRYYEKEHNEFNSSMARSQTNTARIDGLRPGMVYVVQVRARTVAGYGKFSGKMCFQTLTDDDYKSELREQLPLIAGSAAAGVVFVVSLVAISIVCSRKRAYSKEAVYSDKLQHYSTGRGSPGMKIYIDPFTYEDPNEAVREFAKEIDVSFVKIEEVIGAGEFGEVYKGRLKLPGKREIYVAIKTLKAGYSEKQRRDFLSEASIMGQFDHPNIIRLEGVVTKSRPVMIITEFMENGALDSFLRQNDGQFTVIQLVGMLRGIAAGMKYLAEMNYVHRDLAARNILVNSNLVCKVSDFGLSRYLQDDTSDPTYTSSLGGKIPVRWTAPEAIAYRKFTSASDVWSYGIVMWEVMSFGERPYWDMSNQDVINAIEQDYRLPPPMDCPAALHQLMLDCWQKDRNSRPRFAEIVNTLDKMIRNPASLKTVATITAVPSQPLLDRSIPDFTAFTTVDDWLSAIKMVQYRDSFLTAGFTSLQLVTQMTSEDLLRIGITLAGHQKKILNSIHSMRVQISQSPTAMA
FGFR1, sequence (P11362 whole entry, looked up): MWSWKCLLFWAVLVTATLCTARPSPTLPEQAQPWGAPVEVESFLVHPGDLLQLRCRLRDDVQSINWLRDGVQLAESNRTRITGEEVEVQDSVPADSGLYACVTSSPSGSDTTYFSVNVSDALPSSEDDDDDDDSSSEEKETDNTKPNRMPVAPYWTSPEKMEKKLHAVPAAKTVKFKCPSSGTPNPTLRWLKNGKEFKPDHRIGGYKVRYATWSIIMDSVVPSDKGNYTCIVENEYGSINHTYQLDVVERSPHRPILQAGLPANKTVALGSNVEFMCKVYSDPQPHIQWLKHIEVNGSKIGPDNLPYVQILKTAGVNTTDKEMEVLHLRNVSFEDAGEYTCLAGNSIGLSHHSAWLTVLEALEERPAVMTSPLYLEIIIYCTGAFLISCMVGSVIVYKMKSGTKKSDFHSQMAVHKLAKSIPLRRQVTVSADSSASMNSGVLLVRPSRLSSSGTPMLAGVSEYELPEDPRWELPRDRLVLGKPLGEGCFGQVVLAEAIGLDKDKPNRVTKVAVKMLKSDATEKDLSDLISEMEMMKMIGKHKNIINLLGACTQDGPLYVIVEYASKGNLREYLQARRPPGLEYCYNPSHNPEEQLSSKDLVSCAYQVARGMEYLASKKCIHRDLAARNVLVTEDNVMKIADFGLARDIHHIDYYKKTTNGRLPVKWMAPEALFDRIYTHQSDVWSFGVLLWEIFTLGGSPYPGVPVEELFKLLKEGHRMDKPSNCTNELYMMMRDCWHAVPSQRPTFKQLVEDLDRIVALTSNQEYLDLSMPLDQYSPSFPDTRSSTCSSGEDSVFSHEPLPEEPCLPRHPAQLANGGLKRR
Hck, sequence (P08631 whole entry, looked up, the tested form may be a part): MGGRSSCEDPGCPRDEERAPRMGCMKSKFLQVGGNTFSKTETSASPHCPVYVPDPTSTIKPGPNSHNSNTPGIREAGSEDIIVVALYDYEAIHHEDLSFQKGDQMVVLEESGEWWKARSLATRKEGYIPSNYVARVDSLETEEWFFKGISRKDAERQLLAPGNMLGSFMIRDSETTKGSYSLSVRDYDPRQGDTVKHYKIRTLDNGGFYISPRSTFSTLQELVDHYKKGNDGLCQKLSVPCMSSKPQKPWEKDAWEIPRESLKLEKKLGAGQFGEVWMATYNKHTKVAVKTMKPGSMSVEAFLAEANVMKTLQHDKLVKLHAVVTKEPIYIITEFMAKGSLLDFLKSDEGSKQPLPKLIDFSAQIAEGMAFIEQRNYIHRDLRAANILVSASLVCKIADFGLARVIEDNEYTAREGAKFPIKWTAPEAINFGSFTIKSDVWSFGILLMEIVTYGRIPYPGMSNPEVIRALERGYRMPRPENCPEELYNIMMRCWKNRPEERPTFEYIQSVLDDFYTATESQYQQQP
Grb2 SH2, sequence (P62993 whole entry, looked up): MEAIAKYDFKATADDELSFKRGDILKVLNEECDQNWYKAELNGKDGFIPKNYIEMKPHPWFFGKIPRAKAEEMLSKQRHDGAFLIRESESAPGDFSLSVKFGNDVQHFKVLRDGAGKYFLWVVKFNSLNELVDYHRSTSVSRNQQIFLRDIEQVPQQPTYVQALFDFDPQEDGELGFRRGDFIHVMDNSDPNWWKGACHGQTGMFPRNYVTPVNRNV

| Sequence | SH2 binding enrichment (c-Src SH2) | SH2 binding enrichment (SHP2-C SH2) | SH2 binding enrichment (Grb2 SH2) | phosphorylation enrichment (c-Src) | phosphorylation enrichment (AncSZ) | phosphorylation enrichment (Fyn) | phosphorylation enrichment (FGFR3) | phosphorylation enrichment (Jak2) | phosphorylation enrichment (c-Abl (mouse)) | phosphorylation enrichment (EPHB1) | phosphorylation enrichment (Fes) | phosphorylation enrichment (FGFR1) | phosphorylation enrichment (MERTK) | phosphorylation enrichment (Fer (mouse)) | phosphorylation enrichment (EPHB2) | phosphorylation enrichment (Hck) |
| --- | --- | --- | --- | --- | --- | --- | --- | --- | --- | --- | --- | --- | --- | --- | --- | --- |
| EVEPTYVVLFD [ERCC4_Y577_R576T_YF] | 0.51 | 0.521 | 0.749 | 5.25 | 1.51 | 6.46 | 3.65 | 1.26 | 1.22 | 11.1 | 1.21 | 5.46 | 3.5 | 1.08 | 14.1 | 3.99 |
| EVESPYEVRDF [GIGYF2_Y1168_H1171R_YF] | 0.45 | 0.616 | 0.888 | 6.73 | 1.57 | 7.49 | 0.942 | 1.63 | 1.09 | 1.01 | 1.71 | 0.655 | 0.809 | 9.13 | 0.951 | 2.04 |
| EVESPYEVRDY [GIGYF2_Y1168_H1171R] | 0.626 | 0.885 | 0.674 | 4.71 | 1.23 | 5.17 | 0.751 | 1.16 | 0.765 | 0.785 | 1.29 | 0.542 | 0.554 | 5.62 | 0.752 | 1.48 |
| EVGHVYLFLQP [ITGA2B_Y360_R358H] | 0.425 | 0.669 | 0.755 | 0.434 | 1.33 | 0.472 | 0.893 | 1.42 | 0.885 | 0.735 | 1.42 | 0.512 | 0.393 | 0.618 | 0.679 | 0.5 |
| EVKAQNEDIAQ [KRT1_Y358_Y358N] | 0.587 | 0.669 | 0.977 | 0.427 | 0.86 | 0.413 | 0.584 | 0.767 | 0.51 | 0.422 | 0.867 | 0.54 | 0.511 | 0.411 | 0.549 | 0.488 |
| EVRTQYEEIAQ [KRT76_Y361_A359T] | 20.6 | 0.967 | 0.882 | 0.376 | 1.08 | 0.455 | 0.726 | 0.919 | 0.899 | 0.679 | 1.04 | 0.49 | 0.395 | 0.588 | 0.504 | 0.576 |
| EWLRRYLKNGK [HLA-C_Y195_E197K] | 0.436 | 0.409 | 0.656 | 0.504 | 0.68 | 0.439 | 0.516 | 0.679 | 0.546 | 0.373 | 0.636 | 0.507 | 0.581 | 0.471 | 0.578 | 0.522 |
| EYFENYIEELK [PARP4_Y218] | 0.38 | 0.785 | 0.657 | 0.63 | 1.44 | 0.539 | 1.69 | 1.5 | 0.851 | 0.73 | 1.4 | 2.31 | 0.422 | 0.518 | 0.647 | 0.607 |
| FDSPFYRDSLP [TSC1_Y508] | 0.518 | 0.652 | 0.796 | 0.451 | 0.703 | 0.454 | 0.484 | 0.594 | 0.47 | 0.314 | 0.68 | 0.446 | 0.409 | 0.497 | 0.479 | 0.47 |
| FECKWYIPLTD [BCR_Y756_D752E_YF] | 0.561 | 0.817 | 0.685 | 0.451 | 1.23 | 0.434 | 1 | 1.32 | 0.796 | 0.754 | 1.49 | 0.497 | 0.433 | 0.592 | 0.723 | 0.538 |
| FENGEYIIRQG [PRKG1_Y247_YF] | 0.382 | 0.462 | 0.908 | 0.591 | 1.01 | 0.572 | 0.69 | 0.92 | 0.653 | 0.543 | 1.07 | 0.499 | 0.427 | 0.557 | 0.464 | 0.565 |
| FEPDAYDDLDQ [ELP5_Y302_YF] | 0.623 | 0.807 | 1.03 | 0.41 | 1.29 | 0.574 | 0.704 | 1.27 | 0.731 | 0.624 | 1.3 | 0.573 | 0.57 | 0.6 | 0.684 | 0.571 |
| FEPDAYFDLDQ [ELP5_Y302_D303Y_YF] | 0.501 | 0.499 | 0.814 | 0.584 | 1.52 | 0.598 | 4.43 | 1.82 | 0.91 | 0.678 | 1.34 | 5.04 | 0.477 | 0.648 | 0.656 | 0.622 |
| FESPRYLQVRI [FANCA_Y488_H492R] | 0.742 | 0.964 | 0.763 | 0.437 | 0.946 | 0.513 | 0.572 | 0.756 | 0.68 | 0.537 | 0.985 | 0.62 | 0.437 | 0.589 | 0.477 | 0.579 |
| FFHCTYKQRMI [CLEC12A_Y242_K244Q_YF] | 0.902 | 1.07 | 1.27 | 0.435 | 1.04 | 0.493 | 0.752 | 1.02 | 0.85 | 0.687 | 1.28 | 0.643 | 0.517 | 0.513 | 0.608 | 0.498 |
| FFRKFCNKSED [RYR1_Y4864_Y4864C] | 0.513 | 0.75 | 0.992 | 0.442 | 0.981 | 0.589 | 0.6 | 0.779 | 0.677 | 0.515 | 1.04 | 0.49 | 0.518 | 0.417 | 0.381 | 0.603 |
| FGCGMYSHLQG [LGR4_Y848_D844G_YF] | 1.1 | 0.731 | 0.875 | 2.53 | 1.1 | 0.713 | 0.916 | 1.06 | 1.04 | 0.879 | 1.09 | 0.795 | 3.76 | 0.745 | 0.744 | 1.71 |

| Sequence | SH2 binding enrichment (c-Src SH2) | SH2 binding enrichment (SHP2-C SH2) | SH2 binding enrichment (Grb2 SH2) | phosphorylation enrichment (c-Src) | phosphorylation enrichment (AncSZ) | phosphorylation enrichment (Fyn) | phosphorylation enrichment (FGFR3) | phosphorylation enrichment (Jak2) | phosphorylation enrichment (c-Abl (mouse)) | phosphorylation enrichment (EPHB1) | phosphorylation enrichment (Fes) | phosphorylation enrichment (FGFR1) | phosphorylation enrichment (MERTK) | phosphorylation enrichment (Fer (mouse)) | phosphorylation enrichment (EPHB2) | phosphorylation enrichment (Hck) |
| --- | --- | --- | --- | --- | --- | --- | --- | --- | --- | --- | --- | --- | --- | --- | --- | --- |
| FGGLRCGFGVL [KRTAP20-2_Y13_Y13C_YF] | 0.469 | 0.609 | 0.69 | 0.37 | 0.91 | 0.349 | 0.686 | 0.901 | 0.673 | 0.49 | 1.14 | 0.45 | 0.34 | 0.46 | 0.537 | 0.403 |
| FGRTFYNQAIM [MCCC2_Y196] | 0.625 | 0.592 | 0.672 | 0.463 | 1.08 | 0.407 | 0.535 | 0.96 | 0.635 | 0.476 | 1.04 | 0.377 | 0.431 | 0.411 | 0.529 | 0.462 |
| FGYPGYQCKHY [TIMP3_Y177_S179C] | 0.805 | 0.876 | 0.916 | 0.428 | 0.718 | 0.477 | 0.59 | 0.588 | 0.473 | 0.295 | 0.806 | 0.46 | 0.704 | 0.374 | 0.519 | 0.44 |
| FHKALYTVRSY [PDE6C_Y266] | 0.456 | 0.87 | 0.814 | 0.582 | 0.814 | 0.515 | 0.576 | 0.704 | 0.775 | 0.534 | 0.919 | 0.465 | 0.414 | 0.471 | 0.524 | 0.801 |
| FIGRIYLFLTK [GARS1_Y414_YF] | 0.879 | 1.22 | 1.57 | 0.632 | 1.61 | 0.567 | 0.813 | 1.38 | 1.31 | 0.83 | 1.45 | 0.542 | 0.586 | 0.707 | 0.632 | 0.564 |
| FIRKDYEACKA [BBS4_Y48_YF] | 0.792 | 0.731 | 1.07 | 0.479 | 0.642 | 0.445 | 0.592 | 0.741 | 0.726 | 0.651 | 0.865 | 0.502 | 0.334 | 0.49 | 0.516 | 0.396 |
| FKDYFYCWNTS [AICDA_Y146_F151S] | 0.375 | 0.542 | 0.73 | 0.885 | 2.62 | 0.618 | 9.31 | 3.67 | 0.973 | 5.4 | 1.44 | 11.2 | 2.14 | 1.03 | 2.58 | 0.599 |
| FKGIVYSVSSD [DCX_Y70_A71S] | 0.456 | 0.695 | 0.718 | 0.722 | 1.09 | 0.666 | 0.666 | 0.959 | 0.887 | 0.535 | 1.11 | 0.548 | 0.488 | 0.399 | 0.668 | 0.547 |
| FKGKNYKPLDL [RPL35_Y78_K77N_YF] | 0.613 | 0.644 | 0.962 | 0.487 | 0.432 | 0.354 | 0.418 | 0.663 | 0.618 | 0.262 | 0.641 | 0.393 | 0.359 | 0.471 | 0.385 | 0.38 |
| FKNGDYNEVMK [LCT_Y1638] | 1.77 | 0.642 | 0.744 | 0.388 | 0.882 | 0.389 | 0.548 | 0.595 | 0.578 | 0.578 | 0.903 | 0.579 | 0.388 | 0.41 | 0.415 | 0.541 |
| FKPGFYNLKEK [LAMA1_Y490_C485Y_YF] | 0.383 | 0.887 | 0.915 | 0.466 | 0.601 | 0.466 | 0.616 | 0.499 | 0.473 | 0.434 | 0.689 | 0.513 | 0.566 | 0.61 | 0.396 | 0.489 |
| FLEKFYKFGSR [NNMT_Y25_YF] | 0.428 | 0.789 | 0.883 | 0.365 | 0.723 | 0.413 | 0.548 | 0.679 | 0.551 | 0.592 | 0.746 | 0.571 | 0.433 | 0.389 | 0.6 | 0.341 |
| FLQEIYNSNNQ [FGG_Y140_YF] | 0.53 | 1.1 | 0.89 | 1.64 | 1.07 | 1.46 | 0.883 | 0.907 | 0.713 | 0.79 | 1.08 | 0.65 | 0.514 | 0.63 | 0.602 | 1.69 |
| FLQTDYTSQVS [FRMPD1_Y846] | 0.579 | 0.873 | 0.791 | 0.428 | 1.03 | 0.404 | 0.538 | 0.732 | 0.565 | 0.37 | 0.805 | 0.442 | 0.386 | 0.451 | 0.44 | 0.417 |
| FPIDHYLGKEM [G6PD_Y202_R198P_YF] | 0.497 | 0.716 | 0.908 | 0.489 | 0.789 | 0.396 | 0.619 | 0.685 | 0.524 | 0.404 | 0.903 | 0.492 | 0.391 | 0.469 | 0.485 | 0.68 |
| FQCLRYIKQLG [SAMHD1_Y146_R143C] | 0.528 | 0.658 | 0.662 | 0.44 | 0.954 | 0.427 | 0.596 | 1.11 | 0.809 | 0.468 | 1.25 | 0.382 | 0.423 | 0.428 | 0.434 | 0.452 |
